Source: US12630600B2 (MEDIMMUNE LIMITED, priority 2022, dated 2026)
Starred links: 1 amine or outer side, 2 acyl side, 3 side chain; linkers in the order of their positions; H or OH if unused. Non-standard residues stand in square brackets, D forms with d. Groups on a side chain read outwards from the residue. No end group written: not given here. *: point of attachment. C20 diacid = O=C(O)CCCCCCCCCCCCCCCCCCC(=O)*; C18 diacid = O=C(O)CCCCCCCCCCCCCCCCC(=O)*; γGlu = O=C(O)[C@H](CCC(=O)[*:2])N[*:1]; αMeF = C[C@](N)(Cc1ccccc1)C(=O)O; AEEA = NCCOCCOCC(=O)O; Aib = CC(C)(N)C(=O)O

B1: Peptide 476 (peptide)
peptide: H[Aib]QGTFTSDVSK[αMeF]LDTK([AEEA-AEEA-γGlu-C18 diacid])RAQDFVRWLLA[Aib]G-NH2
modifications: N-terminus assumed
SMILES: CC(C)C[C@H](NC(=O)[C@H](CC(C)C)NC(=O)[C@H](Cc1c[nH]c2ccccc12)NC(=O)[C@H](CCCNC(=N)N)NC(=O)[C@@H](NC(=O)[C@H](Cc1ccccc1)NC(=O)[C@H](CC(=O)O)NC(=O)[C@H](CCC(N)=O)NC(=O)[C@H](C)NC(=O)[C@H](CCCNC(=N)N)NC(=O)[C@H](CCCCNC(=O)COCCOCCNC(=O)COCCOCCNC(=O)CC[C@H](NC(=O)CCCCCCCCCCCCCCCCC(=O)O)C(=O)O)NC(=O)[C@@H](NC(=O)[C@H](CC(=O)O)NC(=O)[C@H](CC(C)C)NC(=O)[C@](C)(Cc1ccccc1)NC(=O)[C@H](CCCCN)NC(=O)[C@H](CO)NC(=O)[C@@H](NC(=O)[C@H](CC(=O)O)NC(=O)[C@H](CO)NC(=O)[C@@H](NC(=O)[C@H](Cc1ccccc1)NC(=O)[C@@H](NC(=O)CNC(=O)[C@H](CCC(N)=O)NC(=O)C(C)(C)NC(=O)[C@@H](N)Cc1c[nH]cn1)[C@@H](C)O)[C@@H](C)O)C(C)C)[C@@H](C)O)C(C)C)C(=O)N[C@@H](C)C(=O)NC(C)(C)C(=O)NCC(N)=O
B2: Peptide 477 (peptide)
peptide: H[Aib]QGTFTSDVSK[αMeF]LDTK([AEEA-AEEA-γGlu-C20 diacid])RAQDFVRWLLA[Aib]G-NH2
modifications: N-terminus assumed
SMILES: CC(C)C[C@H](NC(=O)[C@H](CC(C)C)NC(=O)[C@H](Cc1c[nH]c2ccccc12)NC(=O)[C@H](CCCNC(=N)N)NC(=O)[C@@H](NC(=O)[C@H](Cc1ccccc1)NC(=O)[C@H](CC(=O)O)NC(=O)[C@H](CCC(N)=O)NC(=O)[C@H](C)NC(=O)[C@H](CCCNC(=N)N)NC(=O)[C@H](CCCCNC(=O)COCCOCCNC(=O)COCCOCCNC(=O)CC[C@H](NC(=O)CCCCCCCCCCCCCCCCCCC(=O)O)C(=O)O)NC(=O)[C@@H](NC(=O)[C@H](CC(=O)O)NC(=O)[C@H](CC(C)C)NC(=O)[C@](C)(Cc1ccccc1)NC(=O)[C@H](CCCCN)NC(=O)[C@H](CO)NC(=O)[C@@H](NC(=O)[C@H](CC(=O)O)NC(=O)[C@H](CO)NC(=O)[C@@H](NC(=O)[C@H](Cc1ccccc1)NC(=O)[C@@H](NC(=O)CNC(=O)[C@H](CCC(N)=O)NC(=O)C(C)(C)NC(=O)[C@@H](N)Cc1c[nH]cn1)[C@@H](C)O)[C@@H](C)O)C(C)C)[C@@H](C)O)C(C)C)C(=O)N[C@@H](C)C(=O)NC(C)(C)C(=O)NCC(N)=O
B3: Peptide 478 (peptide)
peptide: H[Aib]QGTFTSDVSK[αMeF]LDTK([AEEA-AEEA-γGlu-C18 diacid])RAQDFVRWLLE[Aib]K-NH2
modifications: N-terminus assumed
SMILES: CC(C)C[C@H](NC(=O)[C@H](Cc1c[nH]c2ccccc12)NC(=O)[C@H](CCCNC(=N)N)NC(=O)[C@@H](NC(=O)[C@H](Cc1ccccc1)NC(=O)[C@H](CC(=O)O)NC(=O)[C@H](CCC(N)=O)NC(=O)[C@H](C)NC(=O)[C@H](CCCNC(=N)N)NC(=O)[C@H](CCCCNC(=O)COCCOCCNC(=O)COCCOCCNC(=O)CC[C@H](NC(=O)CCCCCCCCCCCCCCCCC(=O)O)C(=O)O)NC(=O)[C@@H](NC(=O)[C@H](CC(=O)O)NC(=O)[C@H](CC(C)C)NC(=O)[C@](C)(Cc1ccccc1)NC(=O)[C@H](CCCCN)NC(=O)[C@H](CO)NC(=O)[C@@H](NC(=O)[C@H](CC(=O)O)NC(=O)[C@H](CO)NC(=O)[C@@H](NC(=O)[C@H](Cc1ccccc1)NC(=O)[C@@H](NC(=O)CNC(=O)[C@H](CCC(N)=O)NC(=O)C(C)(C)NC(=O)[C@@H](N)Cc1c[nH]cn1)[C@@H](C)O)[C@@H](C)O)C(C)C)[C@@H](C)O)C(C)C)C(=O)N[C@@H](CC(C)C)C(=O)N[C@@H](CCC(=O)O)C(=O)NC(C)(C)C(=O)N[C@@H](CCCCN)C(N)=O
B4: Peptide 479 (peptide)
peptide: H[Aib]QGTFTSDVSK[αMeF]LDTK([AEEA-AEEA-γGlu-C20 diacid])RAQDFVRWLLE[Aib]K-NH2
modifications: N-terminus assumed
SMILES: CC(C)C[C@H](NC(=O)[C@H](Cc1c[nH]c2ccccc12)NC(=O)[C@H](CCCNC(=N)N)NC(=O)[C@@H](NC(=O)[C@H](Cc1ccccc1)NC(=O)[C@H](CC(=O)O)NC(=O)[C@H](CCC(N)=O)NC(=O)[C@H](C)NC(=O)[C@H](CCCNC(=N)N)NC(=O)[C@H](CCCCNC(=O)COCCOCCNC(=O)COCCOCCNC(=O)CC[C@H](NC(=O)CCCCCCCCCCCCCCCCCCC(=O)O)C(=O)O)NC(=O)[C@@H](NC(=O)[C@H](CC(=O)O)NC(=O)[C@H](CC(C)C)NC(=O)[C@](C)(Cc1ccccc1)NC(=O)[C@H](CCCCN)NC(=O)[C@H](CO)NC(=O)[C@@H](NC(=O)[C@H](CC(=O)O)NC(=O)[C@H](CO)NC(=O)[C@@H](NC(=O)[C@H](Cc1ccccc1)NC(=O)[C@@H](NC(=O)CNC(=O)[C@H](CCC(N)=O)NC(=O)C(C)(C)NC(=O)[C@@H](N)Cc1c[nH]cn1)[C@@H](C)O)[C@@H](C)O)C(C)C)[C@@H](C)O)C(C)C)C(=O)N[C@@H](CC(C)C)C(=O)N[C@@H](CCC(=O)O)C(=O)NC(C)(C)C(=O)N[C@@H](CCCCN)C(N)=O
B5: Peptide 481 (peptide)
peptide: H[Aib]QGTFTSDVSK[αMeF]LDTK([AEEA-AEEA-γGlu-C20 diacid])RARDFVQWLLE[Aib]K-NH2
modifications: N-terminus assumed
SMILES: CC(C)C[C@H](NC(=O)[C@H](Cc1c[nH]c2ccccc12)NC(=O)[C@H](CCC(N)=O)NC(=O)[C@@H](NC(=O)[C@H](Cc1ccccc1)NC(=O)[C@H](CC(=O)O)NC(=O)[C@H](CCCNC(=N)N)NC(=O)[C@H](C)NC(=O)[C@H](CCCNC(=N)N)NC(=O)[C@H](CCCCNC(=O)COCCOCCNC(=O)COCCOCCNC(=O)CC[C@H](NC(=O)CCCCCCCCCCCCCCCCCCC(=O)O)C(=O)O)NC(=O)[C@@H](NC(=O)[C@H](CC(=O)O)NC(=O)[C@H](CC(C)C)NC(=O)[C@](C)(Cc1ccccc1)NC(=O)[C@H](CCCCN)NC(=O)[C@H](CO)NC(=O)[C@@H](NC(=O)[C@H](CC(=O)O)NC(=O)[C@H](CO)NC(=O)[C@@H](NC(=O)[C@H](Cc1ccccc1)NC(=O)[C@@H](NC(=O)CNC(=O)[C@H](CCC(N)=O)NC(=O)C(C)(C)NC(=O)[C@@H](N)Cc1c[nH]cn1)[C@@H](C)O)[C@@H](C)O)C(C)C)[C@@H](C)O)C(C)C)C(=O)N[C@@H](CC(C)C)C(=O)N[C@@H](CCC(=O)O)C(=O)NC(C)(C)C(=O)N[C@@H](CCCCN)C(N)=O

target: human glucagon receptor (human, UniProt P47871); experiment: cell-based or functional assay

**Q.** How did the “cAMP production EC50” value turn out when B1 was run?
**A.** 0.104 nM

**Q.** Which “cAMP production EC50” value does the source give for B2 here?
**A.** 0.117 nM

**Q.** How did the “cAMP production EC50” value turn out when B3 was run?
**A.** 0.19 nM

**Q.** How did the “cAMP production EC50” value turn out when B4 was run?
**A.** 0.207 nM

**Q.** With B5 as the binder, how does the “cAMP production EC50” value read?
**A.** 0.35 nM

target: human GLP-1 receptor (human, UniProt P43220); experiment: cell-based or functional assay

**Q.** B1 was tested. Which “cAMP production EC50” value did it give?
**A.** 0.0573 nM

**Q.** Which “cAMP production EC50” value does the source give for B2 here?
**A.** 0.0541 nM

**Q.** How did the “cAMP production EC50” value turn out when B3 was run?
**A.** 0.00918 nM

**Q.** With B4 as the binder, how does the “cAMP production EC50” value read?
**A.** 0.0342 nM

**Q.** How did the “cAMP production EC50” value turn out when B5 was run?
**A.** 0.0522 nM
